Columns and labels:
[1] = target: D25; assay: flow cytometry on cells (shotgun mutagenesis alanine scan, HEK293T); conditions: read off a plot
[2] = target: Palivizumab; assay: as above; conditions: read off a plot

Substance	percent of parent [1]	percent of parent [2]
wildtype RSV F (RSV-A2) expressed on HEK-293T cells (from UniProt P03420) D385A	88 % WT	140 % WT
wildtype RSV F (RSV-A2) expressed on HEK-293T cells (from UniProt P03420) F387A	74 % WT	150 % WT
wildtype RSV F (RSV-A2) expressed on HEK-293T cells (from UniProt P03420) G446A	90 % WT	70 % WT
wildtype RSV F (RSV-A2) expressed on HEK-293T cells (from UniProt P03420) K433A	120 % WT	150 % WT
wildtype RSV F (RSV-A2) expressed on HEK-293T cells (from UniProt P03420) K465A	100 % WT	140 % WT
wildtype RSV F (RSV-A2) expressed on HEK-293T cells (from UniProt P03420) N388A	74 % WT	87 % WT
wildtype RSV F (RSV-A2) expressed on HEK-293T cells (from UniProt P03420) N426A	230 % WT	290 % WT

Source: article PMC4892554
